The values that follow come from the RNAGym collection of RNA variant scans (doi:10.7554/elife.80360).

First the molecules themselves.
B1: CPEB3 Ribozyme (parent)
chain: GGGGGCCACAGCAGAAGCGUUCACGUCGCGGCCCCUGUCAGAUUCUGGUGAAUCUGCGAAUUCUGCUGU

In the data set the parent is B1. Description: self-cleavage, relative activity (ratio to wild type); higher = more cleavage; co-transcriptional.
As to G30A U64C, the self-cleavage was 0.795.

As for C29U G31U, the self-cleavage stood at 0.221.

On to C29U G31A, for which the self-cleavage was 0.315.

Take C29U U55G: the self-cleavage was 0.167.

In the case of C29U U55C, the self-cleavage is 0.199.

Take C29U U55A: the self-cleavage is 0.173.

G30A G47C: the self-cleavage was 0.93.

Take C29G G30A: the self-cleavage is 0.173.

Take C29G G30C: the self-cleavage came out at 0.271.

Take G30A G31C: the self-cleavage came out at 0.254.

As to C29U A51G, the self-cleavage was 0.537.

As to C29U A42U, the self-cleavage worked out at 0.262.

As for C29G G56C, the self-cleavage turned out to be 0.225.

Take C29G G56U: the self-cleavage was 0.292.

Regarding C29G G56A, the self-cleavage turned out to be 0.299.

For the variant C29G U62A, the self-cleavage worked out at 0.254.

Turning to C29G U62C, the self-cleavage came to 0.251.

Regarding C29G U62G, the self-cleavage came to 0.206.

C29G G65U: the self-cleavage was 0.182.

For the variant C29G G65A, the self-cleavage turned out to be 0.286.

As to C29G G65C, the self-cleavage is 0.232.

For the variant G30A A60C, the self-cleavage is 0.261.

On to G30U C45G, for which the self-cleavage was 0.354.

Consider G30U C32A, for which the self-cleavage came to 0.175.

Take C29G U69C: the self-cleavage was 0.892.

Regarding C29G U69A, the self-cleavage was determined as 0.757.

On to G30C U67A, for which the self-cleavage turned out to be 0.869.

Regarding C29U G56A, the self-cleavage was 0.244.

With C29U G56U, the self-cleavage came to 0.198.

Regarding G30C A42C, the self-cleavage was 0.441.

Regarding G30C A42G, the self-cleavage came out at 0.604.

Regarding G30C U69C, the self-cleavage turned out to be 0.995.

As to G30C U69A, the self-cleavage was found to be 0.88.

In the case of G30C U69G, the self-cleavage was 0.96.

For G30A U69A, the self-cleavage turned out to be 1.

For G30A U69C, the self-cleavage was 1.04.

Take C29U C32G: the self-cleavage came to 0.165.

On to C29U C32U, for which the self-cleavage amounted to 0.645.

With G30A C33A, the self-cleavage was found to be 0.203.

In the case of G30A C33U, the self-cleavage came out at 0.691.

On to C29G C63U, for which the self-cleavage worked out at 0.418.

With C29G C63A, the self-cleavage was 0.23.

As to C29G G48U, the self-cleavage came to 0.602.

For C29G G48C, the self-cleavage is 0.698.

For C29G G48A, the self-cleavage came to 0.667.

Turning to C29U U38G, the self-cleavage is 0.238.

Take C29U U38C: the self-cleavage came out at 0.189.

Take C29G U46A: the self-cleavage amounted to 0.707.

C29G U46G: the self-cleavage is 0.603.

As to G30A U55G, the self-cleavage amounted to 0.453.

Turning to G30A U55C, the self-cleavage was found to be 0.519.

Take C29G U49A: the self-cleavage was 0.521.

In the case of C29G U49G, the self-cleavage came to 0.65.

Take C29G C34G: the self-cleavage was determined as 0.294.

C29G U61A: the self-cleavage amounted to 0.57.

As to G30A G68A, the self-cleavage was 0.988.

Regarding G30C G47A, the self-cleavage worked out at 0.617.

Take G30C G47U: the self-cleavage was 0.71.

G30C G47C: the self-cleavage was found to be 0.696.

As to C29U C35U, the self-cleavage stood at 0.314.

On to G30C G65C, for which the self-cleavage stood at 0.431.

As for C29U C54U, the self-cleavage amounted to 0.448.

With C29U C54G, the self-cleavage amounted to 0.219.

In the case of G30A U38G, the self-cleavage was 0.274.

As for G30A U38C, the self-cleavage stood at 0.531.

Regarding G30C C45U, the self-cleavage was 0.603.

As for G30C C45A, the self-cleavage turned out to be 0.51.

For G30C G68U, the self-cleavage was 0.938.

On to G30C G68C, for which the self-cleavage stood at 0.905.

Consider G30C G68A, for which the self-cleavage was 0.899.

Consider C29U U69C, for which the self-cleavage amounted to 0.834.

On to C29U U69G, for which the self-cleavage is 0.737.

With C29U U69A, the self-cleavage stood at 0.619.

For the variant G30C U62G, the self-cleavage was found to be 0.343.

As for G30C U62A, the self-cleavage was determined as 0.259.

As to C29G G58U, the self-cleavage was 0.558.

With C29G G58C, the self-cleavage was 0.416.

Turning to C29U C66U, the self-cleavage is 0.242.

C29U C66A: the self-cleavage stood at 0.235.

In the case of C29G A60U, the self-cleavage was 0.204.

C29G A60G: the self-cleavage stood at 0.337.

As for C29G A60C, the self-cleavage was 0.108.

For the variant C29G A40C, the self-cleavage turned out to be 0.157.

Regarding C29G A40U, the self-cleavage came to 0.277.

C29G A40G: the self-cleavage was 0.457.

Regarding G30A U46C, the self-cleavage was determined as 0.866.

In the case of G30A U46A, the self-cleavage came to 0.723.

As for C29U A59G, the self-cleavage turned out to be 0.58.

Turning to C29U A59C, the self-cleavage came to 0.237.

As for G30U C39G, the self-cleavage is 0.29.

For G30U C39A, the self-cleavage amounted to 0.273.

Take G30U C39U: the self-cleavage came to 0.252.

In the case of C29G U64G, the self-cleavage turned out to be 0.279.

On to C29G U64C, for which the self-cleavage came out at 0.369.

Turning to C29G U36G, the self-cleavage was 0.236.

On to C29G U36A, for which the self-cleavage is 0.157.

As to C29U G37A, the self-cleavage worked out at 0.157.

For the variant C29U G37C, the self-cleavage was 0.162.

With C29U G37U, the self-cleavage worked out at 0.121.

Turning to G30C A60C, the self-cleavage was 0.285.

On to G30C A60G, for which the self-cleavage stood at 0.411.

For G30C A60U, the self-cleavage was 0.242.

Regarding G30C C33U, the self-cleavage was determined as 0.576.

As to G30C G48A, the self-cleavage was 0.694.

On to G30C G48C, for which the self-cleavage was 0.642.

Take C29U U61A: the self-cleavage came out at 0.244.

Take C29U U61G: the self-cleavage worked out at 0.218.

In the case of G30A G41C, the self-cleavage turned out to be 0.215.

Turning to G30A G41A, the self-cleavage is 0.382.

Turning to G30C U55A, the self-cleavage amounted to 0.466.

As for G30C U55C, the self-cleavage was found to be 0.388.

For the variant G30C U55G, the self-cleavage turned out to be 0.323.

On to C29U U67A, for which the self-cleavage turned out to be 0.21.

For C29U U67G, the self-cleavage worked out at 0.359.

Regarding C29U U67C, the self-cleavage turned out to be 0.308.

For C29G A42U, the self-cleavage was determined as 0.385.

Consider C29G A42G, for which the self-cleavage stood at 0.445.

Take C29G G50U: the self-cleavage worked out at 0.535.

Turning to C29G G50A, the self-cleavage turned out to be 0.609.

Consider G30U A51U, for which the self-cleavage came to 0.345.

Take G30U A51G: the self-cleavage was determined as 0.4.

For the variant G30U A51C, the self-cleavage worked out at 0.306.

Turning to C29G U38G, the self-cleavage worked out at 0.207.

For C29G U38C, the self-cleavage was 0.302.

In the case of C29U, the self-cleavage was determined as 0.557.

Turning to C29G, the self-cleavage was determined as 0.618.

On to G30C C54G, for which the self-cleavage is 0.296.

As to G30C C54U, the self-cleavage was found to be 0.673.

Consider C29G G47U, for which the self-cleavage worked out at 0.612.

Consider C29G G47A, for which the self-cleavage came out at 0.553.

Take C29G G47C: the self-cleavage came out at 0.558.

Take G30C C39U: the self-cleavage worked out at 0.396.

Regarding G30C C39A, the self-cleavage amounted to 0.218.

Take G30U A52C: the self-cleavage is 0.395.

For G30U A52G, the self-cleavage is 0.287.

Regarding C29U U43C, the self-cleavage was determined as 0.301.

Regarding G30A A42G, the self-cleavage turned out to be 0.817.

As to C29U G58A, the self-cleavage is 0.372.

C29U G58U: the self-cleavage was determined as 0.641.

As for C29U C39A, the self-cleavage was 0.16.

With C29U C39U, the self-cleavage came to 0.193.

With C29G A59C, the self-cleavage was determined as 0.272.

As to C29G A59U, the self-cleavage was determined as 0.203.

G30A C45U: the self-cleavage was determined as 0.884.

Consider G30A C45G, for which the self-cleavage was found to be 0.73.

G30A U61A: the self-cleavage stood at 0.418.

On to G30C C32A, for which the self-cleavage stood at 0.194.

Regarding G30C C57G, the self-cleavage came out at 0.223.

As for G30U A42C, the self-cleavage is 0.282.

For the variant G30U A42U, the self-cleavage is 0.247.

C29G U43G: the self-cleavage is 0.393.

Turning to G30A A52U, the self-cleavage amounted to 0.806.

With G30A A52C, the self-cleavage came out at 0.739.

As to G30A C63A, the self-cleavage came out at 0.413.

On to G30C U43C, for which the self-cleavage was 0.587.

Regarding G30C U43G, the self-cleavage came out at 0.369.

For the variant G30C A51C, the self-cleavage worked out at 0.614.

Regarding G30C A51G, the self-cleavage was 0.628.

For the variant G30C U49C, the self-cleavage is 0.721.

On to G30C U49G, for which the self-cleavage is 0.564.

Take G30C U49A: the self-cleavage is 0.686.

Consider C29G G68A, for which the self-cleavage stood at 0.845.

C29G G68C: the self-cleavage turned out to be 0.715.

Take C29U G50C: the self-cleavage turned out to be 0.321.

Turning to C29U G50A, the self-cleavage was 0.524.

C29U G50U: the self-cleavage worked out at 0.517.

As for G30C C66G, the self-cleavage was 0.396.
